# PMC4425688
# Substrate: Nc1ccn([C@@H]2O[C@H](COP(=O)(O)OP(=O)(O)OP(=O)(O)O)[C@@H](O)[C@H]2O)c(=O)n1
# Test: purified protein
# Format: biochemical, Bacteroides thetaiotaomicron
# Conditions: 6 mM KDN, 10 mM MgCl2, Tris pH 7.5, 25 °C
protein,measurement,value
BT1715 (Bacteroides thetaiotaomicron VPI-5482) (protein) MNYAFVVQARLGSTRLPGKILKPFYGNQSILDLMVHKLSAISNIPVIIATTNSVINEPIEKKALALGVKCFRGEENDVLKRFIDVAEYFDIQGIFRICSDNPFLDVHAARQLVEIAMKSCNDYISFDIDGTPSIKTHFGFWGEFVTLDALKRVIGFTDDLLYREHVTNYIYSHPELFNIQWISGSPVVSKHHNIRLTIDTLEDFSVAQRIYRDLQEKRVEISIEVIVDYVRRHAEYIQLMKQQIKKNSK,Km,510 ± 30 µM
same,kcat,0.017 ± 0.0005 s⁻¹
